Reference: patent US9296994B2, “Archease as RNA ligaes complex member” (IMBA—INSTITUT FÜR MOLEKULARE BIOTECHNOLOGIE GMBH, priority 2012, dated 2016)

Experiments:
[1] = molecular target: T1, human tRNA ligase complex (Homo sapiens, UniProt Q9Y3I0); experiment: RNA ligation assay with affinity-purified tRNA ligase complex and added recombinant Archease; type: biochemical; conditions: pre-cleaved tRNA substrates or linear intron, time course
T1 construct: FLAG; made in house; Archease expressed in E. coli
T1 sequence (Q9Y3I0 whole entry): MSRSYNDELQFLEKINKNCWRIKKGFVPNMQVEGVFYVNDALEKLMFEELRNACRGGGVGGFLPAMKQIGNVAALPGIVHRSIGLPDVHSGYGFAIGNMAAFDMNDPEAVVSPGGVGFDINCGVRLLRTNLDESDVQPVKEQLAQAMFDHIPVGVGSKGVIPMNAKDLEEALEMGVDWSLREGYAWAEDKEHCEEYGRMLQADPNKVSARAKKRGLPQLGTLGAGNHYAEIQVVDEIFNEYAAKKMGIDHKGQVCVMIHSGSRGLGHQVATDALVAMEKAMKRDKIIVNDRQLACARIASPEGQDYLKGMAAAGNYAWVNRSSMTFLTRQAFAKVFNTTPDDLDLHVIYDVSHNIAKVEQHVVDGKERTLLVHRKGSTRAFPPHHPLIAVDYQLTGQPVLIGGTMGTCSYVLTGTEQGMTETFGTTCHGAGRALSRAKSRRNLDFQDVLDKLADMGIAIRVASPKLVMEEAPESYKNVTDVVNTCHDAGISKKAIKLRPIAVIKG
T1 sequence (Q92499 whole entry partner): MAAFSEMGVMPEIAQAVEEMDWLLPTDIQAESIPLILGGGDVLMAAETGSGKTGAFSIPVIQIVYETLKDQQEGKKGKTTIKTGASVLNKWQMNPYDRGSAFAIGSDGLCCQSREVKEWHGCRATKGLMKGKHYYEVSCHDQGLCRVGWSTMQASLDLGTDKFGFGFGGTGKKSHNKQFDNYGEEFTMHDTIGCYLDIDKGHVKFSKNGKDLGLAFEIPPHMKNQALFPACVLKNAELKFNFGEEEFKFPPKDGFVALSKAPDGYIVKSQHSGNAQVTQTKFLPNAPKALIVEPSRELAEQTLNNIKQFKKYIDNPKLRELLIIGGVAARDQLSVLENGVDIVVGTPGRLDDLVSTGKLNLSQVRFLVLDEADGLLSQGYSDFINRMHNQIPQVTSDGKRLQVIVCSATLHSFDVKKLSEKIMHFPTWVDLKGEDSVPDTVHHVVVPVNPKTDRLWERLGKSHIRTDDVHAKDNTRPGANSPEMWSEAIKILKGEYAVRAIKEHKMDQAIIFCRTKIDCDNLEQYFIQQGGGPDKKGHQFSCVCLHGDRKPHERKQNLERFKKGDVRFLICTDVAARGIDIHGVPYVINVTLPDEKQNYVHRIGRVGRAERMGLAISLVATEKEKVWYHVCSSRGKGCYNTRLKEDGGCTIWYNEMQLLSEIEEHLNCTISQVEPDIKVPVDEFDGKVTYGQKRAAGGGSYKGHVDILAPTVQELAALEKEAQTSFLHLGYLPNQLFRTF
T1 sequence (Q52LJ0 whole entry partner): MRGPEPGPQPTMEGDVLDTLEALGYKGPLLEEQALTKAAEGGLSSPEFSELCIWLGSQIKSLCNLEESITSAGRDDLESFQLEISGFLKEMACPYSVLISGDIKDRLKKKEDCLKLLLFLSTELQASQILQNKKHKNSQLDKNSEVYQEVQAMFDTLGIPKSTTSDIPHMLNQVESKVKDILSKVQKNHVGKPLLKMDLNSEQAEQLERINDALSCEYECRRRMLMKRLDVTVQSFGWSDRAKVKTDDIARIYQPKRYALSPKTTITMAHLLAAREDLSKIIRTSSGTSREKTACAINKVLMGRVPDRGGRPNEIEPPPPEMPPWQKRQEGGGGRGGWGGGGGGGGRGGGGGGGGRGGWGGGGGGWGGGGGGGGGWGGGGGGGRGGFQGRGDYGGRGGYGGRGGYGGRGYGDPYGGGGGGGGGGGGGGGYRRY
T1 sequence (Q9BVC5 whole entry partner): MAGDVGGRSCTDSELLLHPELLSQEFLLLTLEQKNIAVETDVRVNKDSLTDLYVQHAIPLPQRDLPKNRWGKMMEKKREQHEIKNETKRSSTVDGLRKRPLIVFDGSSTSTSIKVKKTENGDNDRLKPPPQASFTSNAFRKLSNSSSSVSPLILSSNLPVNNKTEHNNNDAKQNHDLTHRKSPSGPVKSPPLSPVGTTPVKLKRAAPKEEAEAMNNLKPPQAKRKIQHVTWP
T1 sequence (Q9Y224 whole entry partner): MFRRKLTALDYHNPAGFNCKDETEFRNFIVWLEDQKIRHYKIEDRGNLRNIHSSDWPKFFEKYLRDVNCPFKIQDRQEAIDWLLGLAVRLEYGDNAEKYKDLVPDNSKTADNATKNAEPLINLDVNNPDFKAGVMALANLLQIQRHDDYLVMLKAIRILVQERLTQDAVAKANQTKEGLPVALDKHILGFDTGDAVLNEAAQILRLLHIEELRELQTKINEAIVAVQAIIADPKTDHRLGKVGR
Description: FIG. 3: Archease boosts RNA ligation by the human tRNA ligase complex. A) Time-course ligation assay with affinity-purified tRNA ligase complex and pre-cleaved tRNA substrates in absence or presence of recombinant Archease. B) Time course ligation assay with affinity purified tRNA ligase complex and isolated linear introns (2.5 μM) in absence or presence of recombinant Archease (8.5 μM) expressed in E. coli. The signals corresponding to the concatemerized intron were quantified and plotted as fraction of the total signal detectable in the respective lane.
FIG. 6: The point mutations D39A and K144A abolish the function of Archease in RNA ligation. A) Time-course of ligation activity of FLAG-HSPC117 complexes upon addition of recombinant wild-type or mutant Archease (15 μM). B) SDS-PAGE analysis of purified recombinant wild-type and mutant Archease.
Addition of Archaease influences ligase activity of affinity purified human tRNA ligase complexes.
To study the function of Archease the available NMR structure from the euryarchaeote Methanothermobacter thermautotrophicus (Yee et al., 2002) (36% identical to human protein) was used and aspartic acid (D) 39 and lysine (K) 144, both extremely conserved residues, were replaced by alanines (D39A; K144A) (FIG. 5). Wild-type and mutant versions of Archease were over-expressed in […] and tRNA ligase activity was measured. […] FIG. 6B confirms equal concentrations of recombinant proteins added to the reactions.

[2] = molecular target: T2, FLAG-RTCB, the catalytic subunit of the human tRNA ligase (Homo sapiens, UniProt Q9Y3I0); experiment: Assay to monitor Archease function and inhibition of RNA ligase activity (linear intron substrate); type: biochemical; conditions: FLAG-RTCB from HEK293 cells with His-tagged Archease, GTP or GMPcPP at 0.5 mM
T2 construct: FLAG; made in house; host or cells: HEK293 cells (FLAG-RTCB)
T2 sequence (Q9Y3I0 whole entry): as the sequence (Q9Y3I0 whole entry) above
T2 sequence (Q92499 whole entry partner): as the sequence (Q92499 whole entry partner) above
T2 sequence (Q52LJ0 whole entry partner): as the sequence (Q52LJ0 whole entry partner) above
T2 sequence (Q9BVC5 whole entry partner): as the sequence (Q9BVC5 whole entry partner) above
T2 sequence (Q9Y224 whole entry partner): as the sequence (Q9Y224 whole entry partner) above
Description: FIG. 14: Assay to monitor inhibition of RNA ligase activity. […] The linear substrate (second from bottom to top) is converted into a circular product (bottom) or a concatemer (top), which is further circularized (third from bottom to top). Ligation only took place with wild-type Archease and GTP.
The RNA ligation activity of FLAG-RTCB, the catalytic subunit of the human tRNA ligase, was determined in the presence of wildtype or mutant (D39A) Archease with the addition of GTP or non-hydrolysable GMPcPP (5′-guanylylmethylenebisphosphonate). […] The reaction was carried out with FLAG-RTCB purified from HEK293 cells and hexahistidine tagged wild-type or mutant Archease. Furthermore, GTP or GMPcPP were used at 0.5 mM concentration. A linear intron derived from a radioactively labelled pre-tRNA that was transcribed with T7 polymerase and cleaved with recombinant tRNA endonuclease from Methanocaldococcus jannaschii served as substrate. Cleavage products were resolved on preparative denaturing polyacrylamide gels and the linear intron was eluted overnight and recovered by precipitation. With reference to FIG. 14, FLAG-RTCB and wild-type Archease in the presence of GTP are able to convert the linear substrate (second from bottom to top) into a circular product (bottom) or a concatemer (top), which is further circularized (third from bottom to top). This type of assay can be used to validate candidate inhibitors of the Archease or even the ligase or to screen compound libraries in order to find inhibitory molecules.

[3] = tested on: cleaved Xbp1 RNA minimal substrate; experiment: In vitro Xbp1 splicing (exon ligation) assay with Ire1 pre-cleaved Xbp1 RNA; type: biochemical, human; conditions: addition of recombinant protein
Excerpt: FIG. 8: The human tRNA ligase HSPC117 and Archease are both required for non-conventional splicing of Xbp1 mRNA during the Unfolded Protein Response (UPR). A) Experimental outline for in vitro splicing assay. B) An internally labeled fragment of Xbp1 mRNA was pre-cleaved with recombinant Ire1 endonuclease and supplemented with buffer or HeLa whole-cell extract (wce) for the indicated time points to allow ligation of exon halves. Formation of splice product is specific to the presence of both Ire1 and cell extract. Lanes marked “unspliced” and “spliced” contain control transcripts to mark the size of the splice product. C) HSPC117 and Archease both contribute to non-conventional splicing. 3′ end labeled Xbp1 was pre-cleaved with Ire1 and supplemented with whole-cell extract from HeLa cells treated with siRNAs as indicated above the lanes. Cell extracts were harvested 72 hrs post transfection. D) Ligase activity for non-conventional splicing resides in HSPC117 but not in Archease. In vitro splicing assay using 3′end labeled Xbp1 carried out using whole cell extract (input) or FLAG-IP from HEK293 cells stably expressing FLAG-HSPC117, FLAG-Archease or FLAG-DDX1. Ligation activity is only found in IPs of integral members of the tRNA ligase complex. E) Non-conventional splicing activity is stimulated by addition of Archease. Splicing assay using 3′ end labeled Xbp1 carried out as above with addition of buffer or recombinant protein as indicated above the lanes. […] Bovine Serum Albumine (BSA) was included as control.
For the splicing assay RNA was prepared by T7-transcrition from PCR product containing spliced and unspliced form of human Xbp1. Substrates were labelled internally using a-GTP and at the 3′end using ligation to pCp. Substrate was pre-cleaved with recombinant Ire1 for 5 mins in tRNA ligation buffer with subsequent addition of protein extract of FLAG-IP eluate to total volume of 5 μl. Samples were treated with proteinase K and phenol-chloroform extracted prior to loading on 10% PAGE gel.
Perturbation of normal ER function causes mis- or unfolded proteins to accumulate leading to activation of the unfolded protein response (UPR). One of three UPR pathway inducers in mammals, the ER transmembrane protein Ire1, cleaves the Xbp1 mRNA specifically to remove a 26 nt intron (FIG. 8A). […] None of the additional four components of the tRNA ligase complex were required for ligation in agreement with previous findings (WO 2012/28606). […] The reduced ligation activity seen in Archease-depleted extracts raised the question whether Archease is an RNA ligase or rather acts to stimulate the ligation activity of other ligases. To address this question stable cell lines expressing FLAG-tagged versions of HSPC117, Archease, and DDX1 (a DEAD-box helicase component of the human tRNA ligase complex) were generated and the Xbp1 ligation assay using FLAG-IPs was performed.
To further address the stimulatory activity of Archease both HSPC117 and Archease were depleted by RNAi and then an Archease rescue-construct containing either WT or MUT Archease was introduced.

[4] = molecular target: T3, HSPC117 within the human tRNA ligase complex (Homo sapiens, UniProt Q9Y3I0); experiment: Guanylation of affinity purified FLAG-HSPC117 with [α-32P]GTP; type: biochemical; conditions: SDS PAGE, phosphorimaging
T3 construct: FLAG; made in house
T3 sequence (Q9Y3I0 whole entry): as the sequence (Q9Y3I0 whole entry) above
T3 sequence (Q92499 whole entry partner): as the sequence (Q92499 whole entry partner) above
T3 sequence (Q52LJ0 whole entry partner): as the sequence (Q52LJ0 whole entry partner) above
T3 sequence (Q9BVC5 whole entry partner): as the sequence (Q9BVC5 whole entry partner) above
T3 sequence (Q9Y224 whole entry partner): as the sequence (Q9Y224 whole entry partner) above
Description: FIG. 13: Guanylation of HSPC117 within the human tRNA ligase complex by Archease. A. Affinity purified FLAG-HSPC117 was incubated with wild-type or mutant versions of Archease or buffer as a control in the presence of [α-32P]GTP or [α-32P]ATP, full circles indicate inclusion, empty circles indicate omission from reaction mixtures. Reaction mixtures were resolved by SDS PAGE and radiolabeled protein species visualized by phosphorimaging. B. Equal loading was confirmed by Coomassie staining.
Reaction mixtures were resolved by SDS PAGE and radiolabeled protein species visualized by phosphorimaging or by Coomassie staining (FIGS. 13 A and B).

B1: wild-type Archease: Homo sapiens Archease protein (SEQ ID NO: 28), recombinant, enhances RNA ligase activity of HSPC117 (protein, listed as Homo sapiens)
chain: MAQEEEDVRDYNLTEEQKAIKAKYPPVNRKYEYLDHTADVQLHAWGDTLEEAFEQCAMAMFGYMTDTGTVEPLQTVEVETQGDDLQSLLFHFLDEWLYKFSADEFFIPREVKVLSIDQRNFKLRSIGWGEEFSLSKHPQGTEVKAITYSAMQVYNEENPEVFVIIDI
[1]
  RNA ligase activity of affinity purified tRNA ligase complex upon addition of recombinant Archease: led to an increase in RNA ligase activity
[1]; listed as recombinant Archease
  RNA ligase activity of affinity purified tRNA ligase complex upon addition of recombinant Archease: boosts ligation activity to a great extent
[2]
  RNA ligation activity of FLAG-RTCB: Ligation only takes place with wild-type Archease
[3]
  Stimulation of ligation of Xbp1 RNA minimal substrates by affinity purified human tRNA ligase complex: strongly stimulated ligation
[4]
  Guanylation of FLAG-HSPC117: only detectable in the presence of wild-type
